Source: doi:10.1101/2025.11.07.687288
Like-named read-outs stand apart in the source and are kept apart here.

Columns and labels:
[1] = target: E-cadherin V81D L175D, as the Dimerization Activated TurboID pair (Δ-DAT: ΔEcadN and ΔEcadC); assay: split reporter
[2] = target: E-cadherin V81D L175D, as the Dimerization Activated TurboID pair (Δ-DAT: ΔEcadN and ΔEcadC); assay: split reporter; remark: listed apart in the source

E-cadherin V81D L175D, as the Dimerization Activated TurboID pair (Δ-DAT: ΔEcadN and ΔEcadC) (receptor)
biotinylation relative to WT-DAT, normalized for expression [1]: 38.7%
biotinylation relative to WT-DAT, normalized for expression [2]: 59%
